This test concerns the target T1, cathepsin B (Bos taurus, UniProt P07688).
T1 construct: cathepsin B (bovine spleen; EMD Biosciences); purchased EMD Biosciences; host or cells: bovine spleen (tissue-derived enzyme)
Description: In vitro cleavage of conjugate by cathepsin B. The format is biochemical, bovine. As to conditions: 4.6 μM conjugate, 0.9 μM cathepsin B, pH 6.0, 37° C., 0-26 h. The procedure: huC242-3b conjugate (4.6 μM) was incubated with 0.9 μM cathepsin B (bovine spleen; EMD Biosciences) in pH 6.0 buffer containing 0.6 mM CaCl2/MgCl2 and 2 mM DTT (dithiothreitol) at 37° C. 100 μl aliquots were taken at various time points (0, 1, 3, 8, 17, and 26 h) and free maytansinoids were quantified using a mixed-mode chromatography method (Fleming, et al, Analytical Biochemistry, 2005, 340, 272). Briefly, a HISEP shielded hydrophobic phase column (5 μm particle size, 4.6×250 mm length, Supelco, Bellefonte, Pa., USA) was used for analyzing Ab-DM1 conjugates. Detection was at 252 and 280 nm (extracted from PDA spectra). The flow rate was 0.7 ml/min. Mobile phase A consisted of 100 mM ammonium acetate (pH 7.0). Mobile phase B was 100% acetonitrile. The column was equilibrated at 25% B followed by a linear gradient over 25 min to 40% B after sample injection. […] Synthesized compound 5 had the same retention time and mass spectrum as this metabolite.

B1: huC242-3b: huC242 antibody conjugated via SMCC linker to compound 2; 3.3 maytansinoids per antibody (conjugate, chains of the INN, looked up)
VH: QVQLVQSGAEVKKPGETVKISCKASDYTFTYYGMNWVKQAPGQGLKWMGWIDTTTGEPTYAQKFQGRIAFSLETSASTAYLQIKSLKSEDTATYFCARRGPYNWYFDVWGQGTTVTVSS
VL: DIVMTQSPLSVPVTPGEPVSISCRSSKSLLHSNGNTYLYWFLQRPGQSPQLLIYRMSNLVSGVPDRFSGSGSGTAFTLRISRVEAEDVGVYYCLQHLEYPFTFGPGTKLELK
modifications: SMCC-linked maytansinoid compound 2, DAR 3.3
notes: huC242 antibody conjugated via SMCC linker to compound 2; 3.3 maytansinoids per antibody
Consider B1, for which the “released metabolite on cathepsin B cleavage” value is “sole released metabolite 5 was detected”.
